{"source": "patent US20230213527A1", "about": "“COMPOSITIONS AND METHODS FOR POLYPEPTIDE ANALYSIS” (Quantum-Si Incorporated, priority 2021, published 2023)", "key": {"[1]": {"target": "lysine peptide of Example 6 (printed as …, SEQ ID NO: 825), state with N-terminal AK", "assay": "single-molecule on-chip sequencing with PS691, PS610, PS961 and PS1165"}, "[2]": {"target": "acetyl-lysine peptide of Example 6 (printed as RLK{acetyl}FIAYPDDD, SEQ ID NO: 826), state with N-terminal AK{acetyl}", "assay": "single-molecule on-chip sequencing with PS691, PS610, PS961 and PS1165"}}}
{"substance": "PS1165 (from UniProt Q13490 250-361)", "values": [{"measurement": "RS mean PD", "setting": "[1]", "result": 1.3, "unit": "s"}, {"measurement": "RS mean PD", "setting": "[2]", "result": 2.2, "unit": "s"}]}
